In the supplement of paper PMC11246515:
± gives the standard deviation of the averaged measurements.

Assay: total protein half-life in vivo (active degradation + dilution); higher = more stable protein
[1] = E. coli NCM3722 delta-clpP delta-lon delta-hslV, growth: N-lim chemostat, doubling time 6 h
[2] = E. coli NCM3722 delta-hslV, growth: N-lim chemostat, doubling time 6 h
[3] = E. coli NCM3722 delta-lon, growth: N-lim chemostat, doubling time 6 h
[4] = E. coli NCM3722 delta-smpB, growth: N-lim chemostat, doubling time 6 h
[5] = wild type E. coli NCM3722, growth: C-lim chemostat, doubling time 3 h
[6] = wild type E. coli NCM3722, growth: C-lim chemostat, doubling time 6 h
[7] = wild type E. coli NCM3722, growth: C-lim chemostat, doubling time 12 h
[8] = wild type E. coli NCM3722, growth: N-lim chemostat, doubling time 6 h
[9] = wild type E. coli NCM3722, growth: N-lim chemostat, doubling time 12 h
[10] = wild type E. coli NCM3722, growth: P-lim chemostat, doubling time 6 h
[11] = wild type E. coli NCM3722, growth: P-lim chemostat, doubling time 12 h
[12] = E. coli NCM3722 delta-clpP, growth: N-lim chemostat, doubling time 6 h

Sequence | total protein half-life in vivo [1] [h] | total protein half-life in vivo [2] [h] | total protein half-life in vivo [3] [h] | total protein half-life in vivo [4] [h] | total protein half-life in vivo [5] [h] | total protein half-life in vivo [6] [h] | total protein half-life in vivo [7] [h] | total protein half-life in vivo [8] [h] | total protein half-life in vivo [9] [h] | total protein half-life in vivo [10] [h] | total protein half-life in vivo [11] [h] | total protein half-life in vivo [12] [h]
MLNIVLYEPEIPPNTGNIIRLCANTGFRLHIIEPMGFAWDDKRLRRAGLDYHEFTAVTRHHDYRAFLEAENPQRLFALTTKGTPAHSAVSYQDGDYLMFGPETRGLPASILDALPAEQKIRIPMVPDSRSMNLSNAVSVVVYEAWRQLGYPGAVLRD [P0AGJ7] | 5.27 ± 0.13 | 5.83 ± 0.49 | 5.54 ± 0.16 | 4.82 ± 0.33 | 2.91 ± 0.35 | 6.26 | 13.8 ± 2.8 | 5.23 | 8.21 ± 0.38 | 5.93 ± 0.22 | 11.9 ± 0.24 | –
MTNQPTEIAIVGGGMVGGALALGLAQHGFAVTVIEHAEPAPFVADSQPDVRISAISAASVSLLKGLGVWDAVQAMRCHPYRRLETWEWETAHVVFDAAELKLPLLGYMVENTVLQQALWQALEAHPKVTLRVPGSLIALHRHDDLQELELKGGEVIRAKLVIGADGANSQVRQMAGIGVHAWQYAQSCMLISVQCENDPGDSTWQQFTPDGPRAFLPLFDNWASLVWYDSPARIRQLQNMNMAQLQAEIAKHFPSRLGYVTPLAAGAFPLTRRHALQYVQPGLALVGDAAHTIHPLAGQGVNLGYRDVDALIDVLVNARSYGEAWASYPVLKRYQMRRMADNFIMQSGMDLFYAGFSNNLPPLRFMRNLGLMAAERAGVLKRQALKYALGL | 4.44 ± 0.19 | 4.09 ± 0.076 | 3.34 ± 0.071 | 3.93 ± 0.044 | 2.59 ± 0.043 | 4.352 ± 0.0069 | 7.53 ± 0.7 | 3.808 ± 0.035 | 7.16 ± 0.92 | 4.49 ± 0.16 | 7.66 ± 0.16 | 3.97 ± 0.055
MTISELLQYCMAKPGAEQSVHNDWKATQIKVEDVLFAMVKEVENRPAVSLKTSPELAELLRQQHSDVRPSRHLNKAHWSTVYLDGSLPDSQIYYLVDASYQQAVNLLPEEKRKLLVQL [P0AF50] | 6.83 ± 0.78 | 5.05 | 5.47 ± 0.13 | 4.39 | > 4 | 4.6917 ± 0.0045 | 7.14 ± 1.4 | 3.752 ± 0.03 | 8.4 ± 3 | 4.6 ± 1.2 | 9.9 ± 0.1 | 5.39 ± 0.71
MQILADLLNTIPAIDSTAMSRAQRHIDGLLKPVGSLGKLEVLAIQLAGMPGLNGIPHVGKKAVLVMCADHGVWEEGVAISPKEVTAIQAENMTRGTTGVCVLAEQAGANVHVIDVGIDTAEPIPGLINMRVARGSGNIASAPAMSRRQAEKLLLDVICYTQELAKNGVTLFGVGELGMANTTPAAAIVSTITGRDPEEVVGIGANLPTDKLANKIDVVRRAITLNQPNPQDGVDVLAKVGGFDLVGIAGVMLGAASCGLPVLLDGFLSYAAALAACQMSPAIKPYLIPSHLSAEKGARIALSHLGLEPYLNMEMRLGEGSGAALAMPIIEAACAIYNNMGELAASNIVLPGNTTSDLNS | 4.974 ± 0.0055 | 3.39 ± 0.091 | – | 3.17 ± 0.12 | 3 ± 0.2 | 4.63 ± 0.68 | 8.1 ± 0.064 | 3.27 ± 0.16 | 5.18 ± 0.075 | 4.994 ± 0.018 | 9.91 ± 0.96 | 4.84 ± 1.1
MKKTTLALSALALSLGLALSPLSATAAETSSATTAQQMPSLAPMLEKVMPSVVSINVEGSTTVNTPRMPRNFQQFFGDDSPFCQEGSPFQSSPFCQGGQGGNGGGQQQKFMALGSGVIIDADKGYVVTNNHVVDNATVIKVQLSDGRKFDAKMVGKDPRSDIALIQIQNPKNLTAIKMADSDALRVGDYTVAIGNPFGLGETVTSGIVSALGRSGLNAENYENFIQTDAAINRGNSGGALVNLNGELIGINTAILAPDGGNIGIGFAIPSNMVKNLTSQMVEYGQVKRGELGIMGTELNSELAKAMKVDAQRGAFVSQVLPNSSAAKAGIKAGDVITSLNGKPISSFAALRAQVGTMPVGSKLTLGLLRDGKQVNVNLELQQSSQNQVDSSSIFNGIEGAEMSNKGKDQGVVVNNVKTGTPAAQIGLKKGDVIIGANQQAVKNIAELRKVLDSKPSVLALNIQRGDSTIYLLMQ [P0C0V0] | 5.66 ± 0.5 | 6.05 ± 0.44 | 5.85 ± 0.21 | 5.87 ± 0.45 | 2.97 ± 0.12 | 5.88 ± 0.28 | 10.9 ± 0.37 | 5.86 ± 0.23 | 11.5 ± 0.38 | 5.75 ± 0.2 | 11.4 ± 0.4 | 5.71 ± 0.21
MIIATAGHVDHGKTTLLQAITGVNADRLPEEKKRGMTIDLGYAYWPQPDGRVPGFIDVPGHEKFLSNMLAGVGGIDHALLVVACDDGVMAQTREHLAILQLTGNPMLTVALTKADRVDEARVDEVERQVKEVLREYGFAEAKLFITAATEGRGMDALREHLLQLPEREHASQHSFRLAIDRAFTVKGAGLVVTGTALSGEVKVGDSLWLTGVNKPMRVRALHAQNQPTETANAGQRIALNIAGDAEKEQINRGDWLLADVPPEPFTRVIVELQTHTPLTQWQPLHIHHAASHVTGRVSLLEDNLAELVFDTPLWLADNDRLVLRDISARNTLAGARVVMLNPPRRGKRKPEYLQWLASLARAQSDADALSVHLERGAVNLADFAWARQLNGEGMRELLQQPGYIQAGYSLLNAPVAARWQRKILDTLATYHEQHRDEPGPGRERLRRMALPMEDEALVLLLIEKMRESGDIHSHHGWLHLPDHKAGFSEEQQAIWQKAEPLFGDEPWWVRDLAKETGTDEQAMRLTLRQAAQQGIITAIVKDRYYRNDRIVEFANMIRDLDQECGSTCAADFRDRLGVGRKLAIQILEYFDRIGFTRRRGNDHLLRDALLFPEK | 6.2 ± 0.45 | 5.22 ± 0.44 | 5.39 ± 0.23 | 4.57 ± 0.11 | 2.77 ± 0.057 | 5.56 ± 0.59 | 9.26 ± 0.52 | 4.97 ± 0.16 | 8.6 ± 0.22 | 4.25 ± 0.27 | 6.81 ± 0.26 | 4.93 ± 0.33
MNRIYACPVADVPEGEALRIDTSPVIALFNVGGEFYAINDRCSHGNASMSEGYLEDDATVECPLHAASFCLKTGKALCLPATDPLTTYPVHVEGGDIFIDLPEAQP [P0ABW0] | – | – | – | – | – | – | – | – | – | – | 2.53 | –
MIEILHEYWKPLLWTDGYRFTGVAITLWLLILSVVIGGVLALFLAIGRVSSNKYIQFPIWLFTYIFRGTPLYVQLLVFYSGMYTLEIVKGTEFLNAFFRSGLNCTVLALTLNTCAYTTEIFAGAIRSVPHGEIEAARAYGFSTFKMYRCIILPSALRIALPAYSNEVILMLHSTALAFTATVPDLLKIARDINAATYQPFTAFGIAAVLYLIISYVLISLFRRAEKRWLQHVKPSSTH [P0AEU3] | > 8 | 6.07 | 6.71 ± 0.91 | 7.16 ± 0.54 | > 4 | 5.71 ± 0.54 | 11.3 ± 1.3 | 6.75 ± 0.49 | 11 ± 3.6 | 6.32 | 11.92 ± 0.04 | 6.1106 ± 0.00052
